Test: yeast display, Sf9 membrane polyspecificity reagent, FACS + sequencing; frameworks hold sequencing errors
Procedure, shortened: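 Nanobodies from a synthetic yeast display library (Saccharomyces cerevisiae BJ5465), induced 36–48 hours with galactose, were stained 1 hour at 4 °C with 10% biotinylated, detergent-solubilized Sf9 membrane reagent, enriched on streptavidin microbeads, then FACS-sorted. Anti-HA (expression) and streptavidin (reagent binding) fluorescence set low and high (top ~1%) gates. Polyreactivity labels come from the gate of origin. Genes were colony-PCR amplified, MiSeq 2 × 250 sequenced and filtered by CDR length.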

Row | Sequence | polyreactivity (PSR sort gate)
1 | QVQLVESGGGLVQAVRSLRLSSAASGLTFGRNAMGWYRQAPGKERELVAAISRSGGRTSYADSVKGRFTISRDNAKNTVYLQMNSLKPEDTAVYYCAARSDVYTHDYWGQGTQVTVSS | high polyreactivity
2 | QVHLVESGGGLVQAGGSLRLSCAASGSIFTYYAMGWYRQAPGKERELVAAISSDGSTTYADSVKGRFTISRDNAKNTVYLQMNSLKPEDTAVYYCAASSYNGHGYWGQGTQVTVSS | low polyreactivity
3 | QVQLVESGGGLVQAGGSLRLSCAASGRTFANNAMGWYRQAPGKERELVAAITASGGRTYYADSVKGRFTISRDNAKNTVYLQLNSLKPEDTAVYYCAKRGYASGSKWDYGYWGQGTQVTVSS | high polyreactivity
4 | QVQLVESGGGLVQAGGSLRLSCAASGIIFYTYVMGWYRQAPGKEREFVAGISTSGGRTDYADSVKGRFTISRDNAKNTVYLQMNSLKPEDTAVYYCNADYWQWYSYWYDYWGQGTQVTVSS | high polyreactivity
5 | QVQLVESGAGLVQAGGSLRLSCAASGSTLVFYTMGWYRQAPGKERELVAAISYSGGRTYYADSVKGRFTISRDNAKNTVYLQMNSLKPEDTAVYYCAAVGRSYNRISQYDYWGQGTQVTVSS | high polyreactivity
6 | QGQLVESGGGLVQAGGSLRLSCAASGSTVSYNAMGCSRPARGKERALVAAISSGGRTYYADSVKGRFTISRDNAKKTVYFQMNSLKPEDTAVYYCAVYETHWGYWYELDYWGQGTQVTVSS | high polyreactivity
7 | QVQLVESGGGLVQAGGSLRLSCAASGFTFWDYAMGWYRQSPGKERELVAAISSRGTRTYYADSVKGRFTISRDNAKNTVYLQMNSLKPEDTAVYYCATAITDPDYIHNYWGQGTQVTVSS | high polyreactivity
8 | QVQLVESGGGLVQAGGSLRLSCAASGSIFSSYAMGWYRQAPGKERELVAVITSGDSTNYADSVKGRFTISRDNAKNTVYLQMNSLKPEDTAVYYCAAGTQAHAYVVRPIEMDYWGQGTQVTVSS | low polyreactivity
9 | QVQLVESGGGLVQAGGSLRLSCAASGSTFGTYAMGWYRQAPGKERELVATISIGGITYYADSVKGRFTISRDNAKNTVYLQMNSLKPEDTAVYYCAKDVTDPTSRSDPSGDDYWGQGTQVTVSS | low polyreactivity
10 | QVQLVESAGGLVQEGGSLRLICAASGSIFGGYAMGWYRQAPGKERELVAAISWSSSTTYYADSVKGRFTISRDHAMNTVYLQLNSLKPEDTAVYDCATGIYPQTSDYDYWGQGTQVTVSS | low polyreactivity
11 | QVQLVESGGGLVQAGGSLRLSCAASGRIFVSNGMGWYRQAPGKERELVAVIRYSTGSTYYADSVKGRFTFSRDNAKTTVYLQMNCLKPEDTAVYYCAARNPFFEPSEYDYWGQGTQVTVSS | low polyreactivity
12 | QVQLVESGGGLVQAGGSLRLSCDASGSIFNYYAMGWYRQAPGKERELVATITRGGSTYYADSVKGRFTISRDNAKNTVYLQMNILKPEDTAVYYCAKVGRSTAYQNGYDYWGQGTQVTVSS | low polyreactivity
13 | QVQLVESGGGLVQAGGSLRLSCDASGSTSKTYAMGWYRQAPGKERELVAVISYGGTTYYADSVKGRFTISRDNAKNTVYLQLNSLKPEDTAVYYCAARAWHRRGVPHYYWGQGSQVTVSS | high polyreactivity
14 | QVQLVESGGGLVQAGGSLRLSCAASGLTFSLNAMGWYRPAPGKERELVAAIRGSGGSTYYADSVKGRFTISRDNAKNTVYLQMNSLKPEDTAVYYCAASPKRVLRESGVYWGQGTQVTVSS | high polyreactivity
15 | QVQLVESGGGLVQAGGSLRLSCAASGSTSPGYAMGWYRQAPGKERELVAAITWNGGSTYYADSVKGRFTISRDNAKNTVYLQMNSLKPEDTAVYYCNKLSGYGWRSYGYWGQGTQVTVSS | high polyreactivity
16 | QFQLVESGGGLFQAGGSLRLICAASGSNFGGNTMSWYRHAPGKERDLVAAISRSGTRTYYADSVKGRFTISRDTAKNTVYLQMKSLKPVATAVYYCNAKKVLPPPYDYWGQGTQVTVST | high polyreactivity
17 | QVQLVESVGGLVQAGGSLRLICAASGSTFPSYAMGWYRQAPGKEREVVAAINSGGGTNYADSVKGRFTISRDNAKYTVYLQMNSLKPEDTAVYYCAKSRYDYTKTEGGYWGQGTQVTVSS | low polyreactivity
18 | QVQLVESAGGLVQAGGSLRLSCAASGYTLYLNAMGWYRQAPGKERELVARISGGGSTNYADSVKGRFTISRDNAKNTVYLQMNSLKPEDTAVYYCAASIFAYGYRSFQLDYWGQGTQVTVSS | low polyreactivity
19 | QVQLVESGGGLVQAGGSLRLSCAASGRIFGPYAMGWYRQAPGKDRELVAAISASGGRTYDADSVKGRFTISRDNAKNTVYLQMNSLKPEDTAVYYCARRYWHSGWIFDYWGQGTQVTVSS | high polyreactivity
20 | QVQLQESGGGLVQAGGSLRLSCAASGYISTFSSEMGWYRQAPGKERELVASIAPGCTTSYADSVKGRFTISRDNAKNTVYLQMNSLKPEDTAVYYCAVGNGLSRYVYGDYDYWGQGTQVTVSS | high polyreactivity
21 | QVQLVESGGGLVQAGGSLRLSCAASGRTFKRYAMGWYRQAPGKERELVAVITSGGSTYYADSVKGRFTISRDNAKNTVYLQMNSLKPEDTAVYYCAARYGVRIWHDALYGYWGQGTQVTVSS | high polyreactivity
22 | QVQLVESGGGLVQAGGSLRLSCAASGSTFSPNAMGWYRQAPGKERELVADIDWSGGGTYYADSVKGRFTISRDNAKNTVYLQMNSLKPEDTAVYYCAAGYVWWPFEYDYWGQGTQVTVSS | high polyreactivity

Row | Sequence | polyreactivity (PSR sort gate)
23 | QVQLVESGGGLVQAGGSLRLSCAASGRTLYFNAMGWYRQAAGKERELVASITNGGRTNYADSVKGRFTISRDNAKNTVYLQMNSLKPEDTAVYYCAKRTLCSRGVNYYWGQGTQVTVSS | high polyreactivity
24 | QEQLQESGGGQVQAGGSLLLSCAASGNIIRYYYMGWYRQAPGKERELVAAITYGTSTNYADSVKGRFTISRDNAINTVYLQMNSLKPEDTAVYYCAVDVNYGDPLDNWGQGTQVTVSS | high polyreactivity
25 | QVQLVESGGGLVQAGGSLRLSCAASGLIFTPYAMGWYRQAPGKESELVAAISSSGGTTYYADSVKGRFTISRDNAKNTVYLQMKSLKPEDTAVYYCAADTGYPGYYPEYYWGQGTQVTVSS | high polyreactivity
26 | QVQLVESGGGLVQAGGSLRLSCAASGRTFSSNAKGWYRQAPGKERELVASISFRGGRTYYADSVKGRFTISRDNAKNTVYLQMNSLKPEDTAVYYCVSGTIRTGYGYWGQGTQVTVSS | high polyreactivity
27 | QVQIVESGGGLVQAGGSLRLSCAASGSILIPYAMGWYRQAPGKERELVAAISRTTRTYYADSVKGRFTISRDNAKNTVYLQMNCLKPEDTAVYYCAADRVYPYFRYGFWGQGTKVTVSS | high polyreactivity
28 | QVQLVETGGGLVQAGGSLRLSCADSGRIFRYYVMGWYRQAPGKERELVAAISRSGGSTYYADSVKGRFTISRDNAKNTVYLQMNSLKPEETAVYYCAKRVSTYGFSGYDYWGQGTQVTVSS | high polyreactivity
29 | QVQLVDSGGGLVQAGGSHRLSCAASGLTYHQYAMGWYRQAPGKERELVAAITSDGASTNYADSVKGRFTISRDNAKNTVYLQMISLKPEDTAVYYGAARRRSRQYRYDYWGQGTQVTVSS | high polyreactivity
30 | QVQLVESGGGLVQAGGRLRLSCAPSGLIFYGYAMGWYRQAPGKERELVAAISGSGGRTYYADSVKGRYTISRDNAKNTVYLEMNSLKPEDSAVYYCAGKVPRFGAPGVNYWGQGTQVTVSS | high polyreactivity
31 | QVQLVESGGGLVQAGGSLRLSCAASGLIFLGYAMGWYRQAPGKERELVASIRTGGSTSYADSVKGRFTISRDNAKNTVYLQMNSLKPEDTAVYYCNARDYASGTEGDYWGQGTQVTVSS | low polyreactivity
32 | QVQLVESGGGLVQAGGSLRLSCAASGSIFTPYAMGWYRQAPGKEREVVATITWTGGSTYYADSVKGRFTISRDNAINTVYLQMNSLKPEDTAVYYCAADTYRSGRAYYYWGQGTQVTVSS | low polyreactivity
33 | QVQLVESGGGLVQAGGSLRLSCAASGSIFIYYAMGWYRQAPGKERELVAAISYSDGDTYYADSVKGRFTISRDNAKNTVYLQMNSLKPEDTAVYYCAAEVPQYYDVGWEDYCGQGTQVTVSS | high polyreactivity
34 | QVQLVESGGGLVQAGGSLRLSCAASGRIFHANAMGWSRQAPGKERELVAGISRNGGRTYYADSVKGRFTISRDNAKNTVYLQMNSLKPEDTAVYYCNALHWQSKELDYFWGQGTQVTVSS | high polyreactivity
35 | QVQLVESGGGLVQAGGSLRLSCAASGRIFSYYAMGWYRHAPWKERELVAAISRSGAKTYYADSVKGRFTISRDNAKNSVYLQMNSLKPEDTAVYYCNADTLRRRYNYWGQGTQVTVSS | high polyreactivity
36 | QVQLVESGGGLVQAGGSLRLSCAASGFTFFTYAMGWYRQAPGKDRQLVAAITTGGSTNYADSVKGRFTISRDNAKINVYLEMNSLKPEDTAVYYCAAQRVSVLLFVRHDYWGQGTQVTVSS | low polyreactivity
37 | QVQQQESGGGLVQAGGSLRLSCAASGTIFQLTVMGRYRQAPGKERELVASIDYGGNTNYADSVKGRFTISRDNAKKTVYLQKYIVKPEDTAVYYCAAYSDSWTTHPYWGQVTQVTVSS | low polyreactivity
38 | QVQLVESGGGLVQAGGSLRLSCAASGSTFARNAMGWYRQAHGKERELVAAITNAGDTNYADSVKGRFTISRDNAKNTVYLQMNSLKPVDTAVYYCAADPILIDEYWGQGTQVTVSS | low polyreactivity
39 | QVHLVESGGGLVQAGGILRLSCAASGRTFPGYAMGWYRQAPGKERELVAAITYTGGDTHYADSVKGRFTISRDNAKNTVYLQMNSLKPEDTAVYYCAAVYYRGIQSYDYWGQGTQVTVSS | low polyreactivity
40 | QVQLVESGGGLVQAGGSLRLSCAASGRIFSVNAMVWYRPAPGKERELVAAITGSGTITYYADSVKGRFTISRDNAKNTVYLQMSSLKPEDTAVYYCAARPVLRYYAGYYYWGQGTQVTVSS | high polyreactivity
41 | QVQLVESGGGLVQAGGSLRLSCAASGNTFTYYAMGWYRQAPGKERELVAAINIDVASTYYADSVKGRFTISRDIAKNTVYLQMNSLKPEDTAVYYCAAEVGVYPVYWYDYWGQGTQVTVSS | low polyreactivity
42 | QVQLVESGGGLVQAGGSLRLSCAASGNILGYNAMGWYRQAPGKERELVAAISWIGGSTYYADSVKGRFTISRDNAKNTVYLQMNSLKPEDTAVYYCAARYRTYFTYEFWGQGTQVTVSS | low polyreactivity
43 | QVQLVESGGGLVQAGGSLRLSCAASGFIFWFNDMGWYRQAPGKERELVATISWSDTSTYYADSVKGRFTISRDNAKNTVYLQMTSLKPEDTAVYYCATDGRETCLPEYYWGQGTQVTVSS | low polyreactivity
